Here are results for two molecules from paper PMC3327674, “Structural and Functional Characterization of Mature Forms of Metalloprotease E495 from Arctic Sea-Ice Bacterium Pseudoalteromonas sp. SM495” (PLoS ONE, 2012).

In this test the target is C-phycocyanin, Q54715;Q54714. In words: SPR. The settings on record: chain shown with the change, 2 µM analyte, 20 µl/min, 25°C, CPC-coated chip, read off a plot.

B1: GST-fused PPC2 domain of metalloprotease E495 F5A (protein)
chain: GWTRATQNLDAGYSSLDISMAGGSGDADLYVNFGSASSTSSYECRPYKNGNVETCTIENPQAGTWYIDLQG
For B1, the response (parent: est. 53) turned out to be 35 RU.

B2: GST-fused PPC1 domain of metalloprotease E495 F5A (protein)
chain: EQLFATLDVPAGASNLVFNTNGGSGDADLYVRFGSKPTLSTYDCNSTTSTSTESCSIGSAQAGTYYVMVEA
Take B2: the response (parent: est. 57) was found to be 33 RU.
